What was measured:
Type in all cases: cell-based
[1] = test system: HCC827 lung adenocarcinoma cells; test: MTT viability and bright field microscopy of HCC827 cells with CER T cells and Osimeritinib; settings: Osimeritinib 1 nM, 48 hours, CD4+ T cells
Source text: CD4+ T cells were transduced with lentiviral vectors encoding various CERs (CER21, CER108, CER104, CER129, CER27, CER120, CER122, CER123, CER124, or CER126). Mock transduced (vector only) CD4+ T cells were used as control. CER21 comprises a Tim4 binding domain, Tim4 transmembrane domain, and an engulfment signaling domain comprising a primary engulfment signaling domain comprising a TLR8 signaling domain. CER21 has a polypeptide sequence as set forth in SEQ ID NO:88. CER108 has a polypeptide sequence as set forth in SEQ ID NO:137 and comprises a Tim4 binding domain, Tim4 transmembrane domain, and an engulfment signaling domain comprising a primary engulfment signaling domain comprising a DAP12 signaling domain and a secondary engulfment signaling domain comprising a TLR8 signaling domain. CER104 has a polypeptide sequence as set forth in SEQ ID NO:133 and comprises a Tim4 binding domain, Tim4 transmembrane domain, and an engulfment signaling domain comprising a primary engulfment signaling domain comprising a TLR8 signaling domain and a secondary engulfment signaling domain comprising a DAP12 signaling domain. CER129 has a polypeptide sequence as set forth in SEQ ID NO:177 and comprises a Tim4 binding domain, Tim4 transmembrane domain, and an engulfment signaling domain comprising a primary engulfment signaling domain comprising a TLR8 signaling domain and a secondary engulfment signaling domain comprising a TRAF2 signaling domain. CER27 comprises a Tim4 binding domain, Tim4 transmembrane domain, and an engulfment signaling domain comprising a primary engulfment signaling domain comprising a TLR2 signaling domain. CER27 has a polypeptide sequence as set forth in SEQ ID NO:93. […] T cells were washed away, and the number of viable HCC827 cells was quantified using a calorimetric MTT assay. […]

[2] = test system: HCC159 lung adenocarcinoma cells; test: LDH-based cytotoxicity, HCC159 cells; settings: Osimeritinib 0, 1, 5 nM; E:T 2:1 or 5:1; 18 hours
Method: HCC159 lung adenocarcinoma cells were co-cultured with CER123- or CER126-expressing CD4+ T cells with increasing concentrations of Osimeritnib (0, 1 nM, 5 nM). After 18 hours of co-culture, bulk supernatants were evaluated using a LDH-based cytotoxicity assay. T cells assays were performed using purified, EGFR^+ (transduction marker), CER modified T cells 7 days after activation using CD3 & CD28 microbeads at effector:target cell ratios of 2:1 or 5:1. Control “Mock” T cells were transduced with vector alone. […] Bulk supernatants were also analyzed after 18 hours of co-culture for Interferon Gamma (IFNγ) secretion (FIG. 50). Control “Mock” T cells were transduced with vector alone.

[3] = test system: H1975 lung adenocarcinoma cells; test: MTT viability of H1975 cells co-cultured with CER T cells and Osimeritinib
Source text: H1975 lung adenocarcinoma cells harboring an EGFR mutation were co-cultured with CER123- or CER126-modified or Mock-transduced (vector only) CD4+ T cells with increasing concentrations of Osimeritinib. CER123 has a polypeptide sequence as set forth in SEQ ID NO:150 and comprises a Tim4 binding domain, Tim4 transmembrane domain, and an engulfment signaling domain comprising a primary engulfment signaling domain comprising a TLR2 signaling domain and a secondary engulfment signaling domain comprising a TRAF6 signaling domain. CER126 has a polypeptide sequence as set forth in SEQ ID NO:174 and comprises a Tim4 binding domain, Tim4 transmembrane domain, and an engulfment signaling domain comprising a primary engulfment signaling domain comprising a TLR2 signaling domain and a secondary engulfment signaling domain comprising a TRAF2 signaling domain. CD4 T cells were transduced with a lentiviral vector comprising CER123 or CER126 nucleic acid and truncated EGFR (transduction marker) nucleic acid. Assays were performed using CER modified T cells purified by FACS using an EGFR specific antibody 7 days after activation using CD3 & CD28 microbeads. CER modified T cells and H1975 cells were co-cultured at effector:target cell ratio (E:T) of 1:1, 2:1, or 5:1. After 48 hours of co-culture in the presence of Osimeritinib (0, 250 nM, 500 nM, or 1000 nM), T cells were washed away, and the number of viable H1975 cells were quantified using a calorimetric MTT assay. Cell viability experiments were performed in triplicate and presented as % of control (FIG. 45A).

ALK+A549 cells = test: LDH cytotoxicity assay, A549 ALK+ cells, 18 hours co-culture
Method: An ELM4-ALK translocation was introduced into A549 cells. […] Assays were performed with purified tEGFR^+ (transduction marker), CER-expressing T cells 7 days after activation using CD3 & CD28 microbeads at effector: target cell ratios of 2:1 or 5:1. Mock T cells were transduced with vector alone and used as control. After 18 hours of co-culture, bulk supernatants were evaluated using a LDH cytoxicity assay indicating cell killing (FIGS. 65A-B).

B1: CER21: Tim4 binding and transmembrane domains, TLR8 signaling domain; SEQ ID NO:88 (protein)
chain: MSKGLLLLWLVTELWWLYLTPAASEDTIIGFLGQPVTLPCHYLSWSQSRNSMCWGKGSCPNSKCNAELLRTDGTRIISRKSTKYTLLGKVQFGEVSLTISNTNRGDSGVYCCRIEVPGWFNDVKKNVRLELRRATTTKKPTTTTRPTTTPYVTTTTPELLPTTVMTTSVLPTTTPPQTLATTAFSTAVTTCPSTTPGSFSQETTKGSAFTTESETLPASNHSQRSMMTISTDIAVLRPTGSNPGILPSTSQLTTQKTTLTTSESLQKTTKSHQINSRQTILIIACCVGFVLMVLLFLAFLHHLFYWDVWFIYNVCLAKVKGYRSLSTSQTFYDAYISYDTKDASVTDWVINELRYHLEESRDKNVLLCLEERDWDPGLAIIDNLMQSINQSKKTVFVLTKKYAKSWNFKTAFYLALQRLMDENMDVIIFILLEPVLQHSQYLRLRQRICKSSILQWPDNPKAEGLFWQTLRNVVLTENDSRYNNMYVDSIKQY
modifications: CER21 chimeric engulfment receptor
bright field microscopy of HCC827 co-culture [1]: cluster of dead HCC827 EGFR^+ cells surrounded by phagocytic CER21^+ T cells

B2: CER104: Tim4 binding and transmembrane domains, TLR8 primary and DAP12 secondary signaling domains; SEQ ID NO:133 (protein)
chain: MSKGLLLLWLVTELWWLYLTPAASEDTIIGFLGQPVTLPCHYLSWSQSRNSMCWGKGSCPNSKCNAELLRTDGTRIISRKSTKYTLLGKVQFGEVSLTISNTNRGDSGVYCCRIEVPGWFNDVKKNVRLELRRATTTKKPTTTTRPTTTPYVTTTTPELLPTTVMTTSVLPTTTPPQTLATTAFSTAVTTCPSTTPGSFSQETTKGSAFTTESETLPASNHSQRSMMTISTDIAVLRPTGSNPGILPSTSQLTTQKTTLTTSESLQKTTKSHQINSRQTILIIACCVGFVLMVLLFLAFLHHLFYWDVWFIYNVCLAKVKGYRSLSTSQTFYDAYISYDTKDASVTDWVINELRYHLEESRDKNVLLCLEERDWDPGLAIIDNLMQSINQSKKTVFVLTKKYAKSWNFKTAFYLALQRLMDENMDVIIFILLEPVLQHSQYLRLRQRICKSSILQWPDNPKAEGLFWQTLRNVVLTENDSRYNNMYVDSIKQYYFLGRLVPRGRGAAEAATRKQRITETESPYQELQGQRSDVYSDLNTQRPYYK
modifications: CER104 protein
bright field microscopy of HCC827 co-culture [1]: cluster of dead HCC827 EGFR^+ cells surrounded by phagocytic CER104^+ T cells

B3: CER126: Tim4 binding and transmembrane domains, TLR2 primary and TRAF2 secondary signaling domains; SEQ ID NO:174 (protein)
chain: MSKGLLLLWLVTELWWLYLTPAASEDTIIGFLGQPVTLPCHYLSWSQSRNSMCWGKGSCPNSKCNAELLRTDGTRIISRKSTKYTLLGKVQFGEVSLTISNTNRGDSGVYCCRIEVPGWFNDVKKNVRLELRRATTTKKPTTTTRPTTTPYVTTTTPELLPTTVMTTSVLPTTTPPQTLATTAFSTAVTTCPSTTPGSFSQETTKGSAFTTESETLPASNHSQRSMMTISTDIAVLRPTGSNPGILPSTSQLTTQKTTLTTSESLQKTTKSHQINSRQTILIIACCVGFVLMVLLFLAFLHRFHGLWYMKMMWAWLQAKRKPRKAPSRNICYDAFVSYSERDAYWVENLMVQELENFNPPFKLCLHKRDFIPGKWIIDNIIDSIEKSHKTVFVLSENFVKSEWCKYELDFSHFRLFDENNDAAILILLEPIEKKAIPQRFCKLRKIMNTKTYLEWPMDEAQREGFWVNLRAAIKSMAAASVTPPGSLELLQPGFSKTLLGTKLEAKYLCSACRNVLRRPFQAQCGHRYCSFCLASILSSGPQNCAACVHEGIYEEGISILESSSAFPDNAARREVESLPAVCPSDGCTWKGTLKEYESCHEGRCPLMLTECPACKGLVRLGEKERHLEHECPERSLSCRHCRAPCCGADVKAHHEVCPKFPLTCDGCGKKKIPREKFQDHVKTCGKCRVPCRFHAIGCLETVEGEKQQEHEVQWLREHLAMLLSSVLEAKPLLGDQSHAGSELLQRCESLEKKTATFENIVCVLNREVERVAMTAEAC
modifications: CER126 protein
cell killing of HCC159 cells (LDH) [2]: inducible cell killing responses | bright field images of H1975 co-culture ([3]; Osimeritinib 500 nM, vs control T cells (vector alone)): loss of H1975 cells | growth/viability of H1975 cells (MTT) ([3]; Osimeritinib 250, 500, 1000 nM, CD4+ T cells, E:T 1:1, 2:1, 5:1, 48 hours): synergistically suppressed | micrograph images of A549 co-culture (ALK+A549 cells; Crizotinib 3700 nM): near complete loss of Crizotinib-treated A549 cells | cell killing of A549 ALK+ cells (LDH) (ALK+A549 cells; Crizotinib or Alectinib 0, 2500, 3700 nM, E:T 2:1 or 5:1, 18 hours): dose-dependent inducible cytokine secretion and cell killing responses

B4: CER122: Tim4 binding and transmembrane domains, TLR2 primary and DAP12 secondary signaling domains; SEQ ID NO:149 (protein)
chain: MSKGLLLLWLVTELWWLYLTPAASEDTIIGFLGQPVTLPCHYLSWSQSRNSMCWGKGSCPNSKCNAELLRTDGTRIISRKSTKYTLLGKVQFGEVSLTISNTNRGDSGVYCCRIEVPGWFNDVKKNVRLELRRATTTKKPTTTTRPTTTPYVTTTTPELLPTTVMTTSVLPTTTPPQTLATTAFSTAVTTCPSTTPGSFSQETTKGSAFTTESETLPASNHSQRSMMTISTDIAVLRPTGSNPGILPSTSQLTTQKTTLTTSESLQKTTKSHQINSRQTILIIACCVGFVLMVLLFLAFLHRFHGLWYMKMMWAWLQAKRKPRKAPSRNICYDAFVSYSERDAYWVENLMVQELENFNPPFKLCLHKRDFIPGKWIIDNIIDSIEKSHKTVFVLSENFVKSEWCKYELDFSHFRLFDENNDAAILILLEPIEKKAIPQRFCKLRKIMNTKTYLEWPMDEAQREGFWVNLRAAIKSYFLGRLVPRGRGAAEAATRKQRITETESPYQELQGQRSDVYSDLNTQRPYYK
modifications: CER122 protein
bright field microscopy of HCC827 co-culture [1]: cluster of dead HCC827 EGFR^+ cells surrounded by phagocytic CER122^+ T cells
